Assay results as given in the PETadex activity labels (doi:10.1021/acscatal.9b00568).
Where a chain is given by its changes, count along the chain named.

B1: unnamed (protein)
chain: MNFPRASRLMQAAVLGGLMAVSAAATAQTNPYARGPNPTAASLEASAGPFTVRSFTVSRPSGYGAGTVYYPTNAGGTVGAIAIVPGYTARQSSIKWWGPRLASHGFVVITIDTNSTLDQPESRSSQQMAALRQVASLNGTSSSPIYGKVDTARMGVMGWSMGGGGSLISAANNPSLKAAAPQAPWHSSTNFSSVTVPTLIFACENDSIAPVNSSALPIYDSMSRNAKQFLEINGGSHSCANSGNSNQALIGKKGVAWMKRFMDNDTRYSTFACENPNSTAVSDFRTANCS
B2: unnamed (protein)
chain: B1 chain with E121S, H186F, A280R
B3: unnamed (protein)
chain: B1 chain with E121S, H186L, A280R
B4: unnamed (protein)
chain: B1 chain with E121D, A280R
B5: unnamed (protein)
chain: B1 chain with E121S, H186D, A280R

These proteins were tested on PET (assay: Proxy for plastic degradation [HPLC-UV]). Conditions: pH 9; 30 °C; 0 h; part of the chain shown.

B1 and B5 are the same in “Proxy for plastic degradation” value: 0 µM for the first, 0 µM for the second.

Same assay, conditions: pH 9; 30 °C; 1 h; part of the chain shown

First: B1
Second: B5
The “Proxy for plastic degradation” value of the first is 5-fold higher: 25 µM for the first, 5 µM for the second.

Same assay, conditions: pH 9; 30 °C; 2 h; part of the chain shown

Compared with B1, B5 is 6-fold lower in “Proxy for plastic degradation” value: 42 µM for the first, 7 µM for the second.

Same assay, conditions: pH 9; 30 °C; 3 h; part of the chain shown

Going from B1 to B5, the “Proxy for plastic degradation” value falls from 50 µM to 10 µM (5-fold).

Same assay, conditions: pH 9; 30 °C; 4 h; part of the chain shown

Going from B1 to B5, the “Proxy for plastic degradation” value falls from 55 µM to 11 µM (5-fold).

Same assay, conditions: pH 9; 30 °C; 5 h; part of the chain shown

Compared with B1, B5 is 6.2-fold lower in “Proxy for plastic degradation” value: 68 µM for the first, 11 µM for the second.

Same assay, conditions: pH 9; 30 °C; 6 h; part of the chain shown

Going from B1 to B5, the “Proxy for plastic degradation” value falls from 70 µM to 12 µM (5.8-fold).

Same assay, conditions: pH 9; 30 °C; 7 h; part of the chain shown

Compared with B1, B5 is 5.7-fold lower in “Proxy for plastic degradation” value: 80 µM for the first, 14 µM for the second.

Same assay, conditions: pH 9; 30 °C; 8 h; part of the chain shown

Going from B1 to B5, the “Proxy for plastic degradation” value falls from 75 µM to 15 µM (5-fold).

Same assay, conditions: pH 9; 30 °C; 9 h; part of the chain shown

Going from B1 to B5, the “Proxy for plastic degradation” value falls from 90 µM to 13 µM (6.9-fold).

Same assay, conditions: pH 9; 30 °C; 10 h; part of the chain shown

Going from B1 to B5, the “Proxy for plastic degradation” value falls from 92 µM to 15 µM (6.1-fold).

Same assay, conditions: pH 9; 40 °C; 0 h; part of the chain shown

B1 and B5 are the same in “Proxy for plastic degradation” value: 0 µM for the first, 0 µM for the second.

Same assay, conditions: pH 9; 40 °C; 1 h; part of the chain shown

Going from B1 to B5, the “Proxy for plastic degradation” value falls from 70 µM to 11 µM (6.4-fold).

Same assay, conditions: pH 9; 40 °C; 2 h; part of the chain shown

First: B1
Second: B5
The “Proxy for plastic degradation” value of the first is 8.2-fold higher: 82 µM for the first, 10 µM for the second.

Same assay, conditions: pH 9; 40 °C; 3 h; part of the chain shown

Going from B1 to B5, the “Proxy for plastic degradation” value falls from 105 µM to 10 µM (10-fold).

Same assay, conditions: pH 9; 40 °C; 4 h; part of the chain shown

Going from B1 to B5, the “Proxy for plastic degradation” value falls from 100 µM to 10 µM (10-fold).

Same assay, conditions: pH 9; 40 °C; 5 h; part of the chain shown

Compared with B1, B5 is 15-fold lower in “Proxy for plastic degradation” value: 102 µM for the first, 7 µM for the second.

Same assay, conditions: pH 9; 40 °C; 6 h; part of the chain shown

Going from B1 to B5, the “Proxy for plastic degradation” value falls from 104 µM to 8 µM (13-fold).

Same assay, conditions: pH 9; 40 °C; 7 h; part of the chain shown

Compared with B1, B5 is 11-fold lower in “Proxy for plastic degradation” value: 100 µM for the first, 9 µM for the second.

Same assay, conditions: pH 9; 40 °C; 8 h; part of the chain shown

Going from B1 to B5, the “Proxy for plastic degradation” value falls from 104 µM to 8 µM (13-fold).

Same assay, conditions: pH 9; 40 °C; 9 h; part of the chain shown

Compared with B1, B5 is 16-fold lower in “Proxy for plastic degradation” value: 115 µM for the first, 7 µM for the second.

Same assay, conditions: pH 9; 40 °C; 10 h; part of the chain shown

Going from B1 to B5, the “Proxy for plastic degradation” value falls from 108 µM to 8 µM (14-fold).

Same assay, conditions: pH 9; 30 °C; 24 h

Going from B2 to B3, the “Proxy for plastic degradation” value falls from 6 µM to 2.1 µM (2.9-fold).

B4 was tested, and the “Proxy for plastic degradation” value was 15.2 µM.

Same assay, conditions: pH 9; 30 °C; 72 h

First: B2
Second: B3
The “Proxy for plastic degradation” value of the first is 3.7-fold higher: 11.4 µM for the first, 3.1 µM for the second.

For B4, the “Proxy for plastic degradation” value was 23.2 µM.

Same assay, conditions: pH 9; 40 °C; 24 h

Compared with B2, B3 is 3.8-fold lower in “Proxy for plastic degradation” value: 7.5 µM for the first, 2 µM for the second.

For B4, the “Proxy for plastic degradation” value was 28.9 µM.

Same assay, conditions: pH 9; 40 °C; 72 h

First: B2
Second: B3
The “Proxy for plastic degradation” value of the first is 2-fold higher: 14.4 µM for the first, 7.1 µM for the second.

B4 was tested, and the “Proxy for plastic degradation” value was 38.4 µM.
